{"source": "paper doi:10.1101/2025.03.26.645513v1", "proteins": {"B1": {"name": "SaCysK (Staphylococcus aureus subsp. aureus N315) (protein)", "chain": "MAQKPVDNITQIIGGTPVVKLRNVVDDNAADVYVKLEYQNPGGSVKDRIALAMIEKAEREGKIKPGDTIVEPTSGNTGIGLAFVCAAKGYKAVFTMPETMSQERRNLLKAYGAELVLTPGSEAMKGAIKKAKELKEEHGYFEPQQFENPANPEVHELTTGPELLQQFEGKTIDAFLAGVGTGGTLSGVGKVLKKEYPNIEIVAIEPEASPVLSGGEPGPHKLQGLGAGFIPGTLNTEIYDSIIKVGNDTAMEMSRRVAKEEGILAGISSGAAIYAAIQKAKELGKGKTVVTVLPSNGERYLSTPLYSFDD"}}, "substrate": "CC(=O)OC[C@H](N)C(=O)O", "experiment": "purified protein", "conditions": "15 mM Na2S, MOPS, 37 °C, no glycerol"}
{"protein": "B1", "values": [{"measurement": "Km", "result": "1378 ± 592", "unit": "µM"}]}
